Assay in all cases: BiFC in tobacco leaf epidermal cells
Experiment [1] has as its target BSU1 (BiFC construct tested with BSK1-cYFP) (Arabidopsis, UniProt Q9LR78 1-793). From the text: (§1) The blot was probed sequentially with MBP-BSU1 and anti-MBP antibody (upper) and then stained with Ponceau S (lower). […] Tobacco leaf epidermal cells were transformed with indicated constructs. At5g49760 is a receptor kinase unrelated to BR signaling used here as a negative control. Bright spots in nYFP+BSK 1-cYFP and At5g49760-nYFP+BSK1-cYFP are chloroplast auto-fluorescence. […] Total protein extracts obtained from Arabidopsis plants (F1) expressing BSU1 -YFP or co-expressing BSU1-YFP and BSK1-myc were immunoprecipitated with anti-myc, and the immunoblot was probed with anti-GFP and anti-myc antibody. […] GST-BSK1 or GST-BSK1 S230A was incubated with GST-BRI1-K or GST for 2 hrs. […] In the presence of BR (+BR), BR binding to the extracellular domain of BRI1 induces dissociation of BKI1 and association and inter-activation between BRI1 and BAKI. Activated BRI1 then phosphorylates BSK1, which in turn dissociates from the receptor complex and interacts with and presumably activate BSU1. BSU1 inactivates BIN2 by dephosphorylating its pTyr200, allowing accumulation of unphosphorylated BZR1/2, likely with help of a phosphatase that is yet to be identified. Unphosphorylated BZR1/2 accumulate in the nucleus and alter the expression of BR-target genes, leading to cellular and developmental responses. While individual representative protein is shown for each function, in Arabidopsis most of these components have about 2 to 5 homologous proteins (paralogs) that can contribute to the same or similar signaling function.
(§2) Transformation by Agrobacterium infiltration, observations of subcellular localization and BiFC signal in tobacco or Arabidopsis were performed as described previously 5.

The target of another experiment is T1, At5g49760-nYFP (UniProt Q8GZ99 24-953).
T1 construct: BiFC negative control; not shown: N-terminal half of YFP (nYFP)
T1 sequence (looked up): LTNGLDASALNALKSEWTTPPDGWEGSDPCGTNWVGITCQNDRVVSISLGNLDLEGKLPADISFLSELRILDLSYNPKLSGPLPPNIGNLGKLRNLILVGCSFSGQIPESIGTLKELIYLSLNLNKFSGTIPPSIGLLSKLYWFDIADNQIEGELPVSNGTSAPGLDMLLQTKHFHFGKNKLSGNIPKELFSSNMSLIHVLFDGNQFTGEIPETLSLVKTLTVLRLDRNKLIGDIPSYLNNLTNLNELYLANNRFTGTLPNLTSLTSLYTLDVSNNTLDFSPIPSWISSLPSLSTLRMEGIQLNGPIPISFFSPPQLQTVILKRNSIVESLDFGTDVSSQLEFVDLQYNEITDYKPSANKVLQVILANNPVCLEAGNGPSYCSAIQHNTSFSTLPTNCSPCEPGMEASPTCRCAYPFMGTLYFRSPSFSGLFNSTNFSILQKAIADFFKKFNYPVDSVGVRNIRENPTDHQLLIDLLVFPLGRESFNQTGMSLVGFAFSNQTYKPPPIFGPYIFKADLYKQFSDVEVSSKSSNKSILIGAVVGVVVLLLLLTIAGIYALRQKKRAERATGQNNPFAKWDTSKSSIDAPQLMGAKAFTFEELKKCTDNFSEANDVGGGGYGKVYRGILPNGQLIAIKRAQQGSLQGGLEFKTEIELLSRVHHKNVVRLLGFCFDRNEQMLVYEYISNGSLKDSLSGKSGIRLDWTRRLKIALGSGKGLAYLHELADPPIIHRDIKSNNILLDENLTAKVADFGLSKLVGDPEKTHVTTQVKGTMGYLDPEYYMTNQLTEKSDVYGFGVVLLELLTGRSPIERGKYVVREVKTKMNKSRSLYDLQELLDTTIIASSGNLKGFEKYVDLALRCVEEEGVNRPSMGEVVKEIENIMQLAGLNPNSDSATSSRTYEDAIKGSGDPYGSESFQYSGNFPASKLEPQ
Excerpt: as §1, §2

Experiment [2] deals with T2, BSL1 (BiFC construct tested with BSK1-cYFP) (Arabidopsis, UniProt Q8L7U5 1-881).
T2 sequence: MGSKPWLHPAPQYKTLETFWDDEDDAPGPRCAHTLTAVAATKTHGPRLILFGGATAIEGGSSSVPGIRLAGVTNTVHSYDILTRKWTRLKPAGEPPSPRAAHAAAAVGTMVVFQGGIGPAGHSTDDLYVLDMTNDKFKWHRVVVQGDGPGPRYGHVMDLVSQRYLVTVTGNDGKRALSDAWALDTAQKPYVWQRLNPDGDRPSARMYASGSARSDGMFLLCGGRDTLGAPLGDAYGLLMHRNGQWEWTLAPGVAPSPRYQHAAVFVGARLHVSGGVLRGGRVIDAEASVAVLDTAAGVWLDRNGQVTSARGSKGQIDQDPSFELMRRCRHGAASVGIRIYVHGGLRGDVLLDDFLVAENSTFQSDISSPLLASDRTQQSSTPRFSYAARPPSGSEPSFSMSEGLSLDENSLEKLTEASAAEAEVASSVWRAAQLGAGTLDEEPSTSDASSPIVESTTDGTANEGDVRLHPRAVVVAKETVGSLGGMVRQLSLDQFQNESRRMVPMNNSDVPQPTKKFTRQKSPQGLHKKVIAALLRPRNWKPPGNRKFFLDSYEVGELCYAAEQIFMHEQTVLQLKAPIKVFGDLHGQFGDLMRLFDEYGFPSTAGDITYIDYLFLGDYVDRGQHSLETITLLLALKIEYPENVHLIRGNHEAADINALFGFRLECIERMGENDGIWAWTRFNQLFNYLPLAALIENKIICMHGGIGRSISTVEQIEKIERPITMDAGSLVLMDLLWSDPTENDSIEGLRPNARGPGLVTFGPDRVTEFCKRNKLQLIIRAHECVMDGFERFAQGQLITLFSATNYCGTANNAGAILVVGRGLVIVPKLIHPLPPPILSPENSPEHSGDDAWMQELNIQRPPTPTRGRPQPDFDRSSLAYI
Excerpt: as §1, §2

From patent US20120322150A1 (CARNEGIE INSTITUTION OF WASHINGTON, published 2012) come the findings set out here.

Sequence of BSU1 (BiFC construct tested with BSK1-cYFP) (Q9LR78 whole entry, the tested form may be a part): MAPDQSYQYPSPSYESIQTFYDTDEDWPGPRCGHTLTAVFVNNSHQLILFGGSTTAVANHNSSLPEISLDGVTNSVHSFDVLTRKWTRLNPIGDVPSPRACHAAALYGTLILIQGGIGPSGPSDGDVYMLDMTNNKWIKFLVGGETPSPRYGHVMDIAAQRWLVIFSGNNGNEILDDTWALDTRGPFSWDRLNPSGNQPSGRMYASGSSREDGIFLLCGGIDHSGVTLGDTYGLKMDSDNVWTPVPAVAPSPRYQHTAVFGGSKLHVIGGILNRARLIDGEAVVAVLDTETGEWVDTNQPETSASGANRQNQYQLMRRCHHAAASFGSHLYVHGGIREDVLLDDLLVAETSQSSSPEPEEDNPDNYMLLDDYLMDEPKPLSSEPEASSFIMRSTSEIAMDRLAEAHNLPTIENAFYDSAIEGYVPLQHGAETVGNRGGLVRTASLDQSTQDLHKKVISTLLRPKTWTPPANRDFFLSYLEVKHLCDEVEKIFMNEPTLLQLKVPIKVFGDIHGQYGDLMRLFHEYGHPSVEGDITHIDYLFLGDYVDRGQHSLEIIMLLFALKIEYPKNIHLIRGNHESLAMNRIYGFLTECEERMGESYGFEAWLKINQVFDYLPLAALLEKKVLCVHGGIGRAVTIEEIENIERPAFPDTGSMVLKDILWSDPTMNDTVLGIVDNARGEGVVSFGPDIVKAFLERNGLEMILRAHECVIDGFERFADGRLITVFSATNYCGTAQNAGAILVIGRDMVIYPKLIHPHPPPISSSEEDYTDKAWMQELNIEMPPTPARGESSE

B1: BSK1-cYFP (enzyme, Arabidopsis, UniProt Q944A7 2-512, looked up)
chain: GCCQSLFSGDNPLGKDGVQPQPLSQNNHGGATTADNGGSGGASGVGGGGGGGGIPSFSEFSFADLKAATNNFSSDNIVSESGEKAPNLVYKGRLQNRRWIAVKKFTKMAWPEPKQFAEEAWGVGKLRHNRLANLIGYCCDGDERLLVAEFMPNDTLAKHLFHWENQTIEWAMRLRVGYYIAEALDYCSTEGRPLYHDLNAYRVLFDEDGDPRLSCFGLMKNSRDGKSYSTNLAYTPPEYLRNGRVTPESVTYSFGTVLLDLLSGKHIPPSHALDMIRGKNIILLMDSHLEGKFSTEEATVVVELASQCLQYEPRERPNTKDLVATLAPLQTKSDVPSYVMLGIKKQEEAPSTPQRPLSPLGEACSRMDLTAIHQILVMTHYRDDEGTNELSFQEWTQQMKDMLDARKRGDQSFREKDFKTAIDCYSQFIDVGTMVSPTVFGRRSLCYLLCDQPDAALRDAMQAQCVYPDWPTAFYMQSVALAKLNMNTDAADMLNEAAQLEEKRQRGGRGS
notes: BiFC construct in tobacco leaf epidermal cells; not shown: C-terminal half of YFP (cYFP)
For the molecule B1, the binding result in experiment [1] is on record as “binds”; with At5g49760-nYFP, “no binding”; in experiment [2], “binds”.
